Results on 76 sequences are retold here after the supplement of paper PMC7877785.

The nature of this data set: self-splicing fitness, log relative to wild type (ln ratio); higher = more splicing; Tetrahymena group I intron in knt gene, E. coli kanamycin selection, DiMSum; sequences stand for … in CUCUCU…GGAGGGAAAAGUUAUCAGGCAUGCACCUGGUAGCUAGUCUUUAAACCAAUAGAUUGCAUCGGUUUAAAAGGCAAGACCGUCAAAUUGCGGGAAAGGGGUCAACAGCCGUUCAGUACCAAGUCUCAGGGGAAACUUUGAGAUGGCCUUGCAAAGGGUAUGGUAAUAAGCUGACGGACAUGGUCCUAACCACGCAGCCAAGUCCUAAGUCAACAGAUCUUCUGUUGAUAUGGAUGCAGUUCACAGACUAAAUGUCGGUCGGGGAAGAUGUAUUCUUCUCAUAAGAUAUAGUCGGACCUCUCCUUAAUGGGAGCUAGCGGAUGAAGUGAUGCAACACUGGAGCCGCUGGGAACUAAUUUGUAUGCGAAAGUAUAUUGAUUAGUUUUGGAGUACUCGUGGUCG
In short, it runs like this: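 DiMSum derived fitness as the error-weighted combination of fold changes across replicates, kanamycin versus no kanamycin, normalised to wild type. E. coli BL21(DE3) held the library, which randomised all eight P1ex-region intron nucleotides within the knt kanamycin-resistance gene on pET-22b(+). Six replicate transformations grew overnight at 37°C or 30°C on LB agar with or without 25 μg/mL kanamycin, also containing 100 μg/mL carbenicillin, 50 μM IPTG and 0.2% rhamnose, and pooled colonies were amplicon-sequenced on an Illumina HiSeq 2500.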

± gives the uncertainty stated by the source.

On to UUCAAGCAAUAUUACGGUGC, for which the “self-splicing fitness (ln)” value was -2.77 ± 0.42 (30 °C) and -0.868 ± 0.3 (37 °C).
For GGCAAGCAAUAUUACGUUCA, in that order: -0.364 ± 0.092 and 0.553 ± 0.11.
The corresponding values for GGCUAGCAAUAUUACGGCGC are 0.164 ± 0.14 and 0.272 ± 0.16.
For CGGUAGCAAUAUUACGACAA, in that order: -2 ± 0.21 and 0.305 ± 0.1.
Turning to CGGCAGCAAUAUUACGCUUU, the “self-splicing fitness (ln)” value (30 °C) was -2.9 ± 0.2 and the “self-splicing fitness (ln)” value (37 °C) is -1.62 ± 0.13.
The corresponding values for GAUAAGCAAUAUUACGCCUG are -0.902 ± 0.09 and 0.488 ± 0.13.
For CUGUAGCAAUAUUACGGGAU, in that order: -3.16 ± 0.26 and -2.28 ± 0.23.
For CAUAAGCAAUAUUACGGUUC, the “self-splicing fitness (ln)” value runs as follows: (30 °C) -3.7 ± 0.17; (37 °C) -3.08 ± 0.19.
GCAGAGCAAUAUUACGGAGG: the “self-splicing fitness (ln)” value is, setting by setting: (30 °C) -5.06 ± 0.25; (37 °C) -2.14 ± 0.15.
The corresponding values for ACUCAGCAAUAUUACGGUUC are -2.68 ± 0.14 and -2.33 ± 0.14.
The corresponding values for GUCAAGCAAUAUUACGGUUA are -2.2 ± 0.14 and -0.972 ± 0.1.
The corresponding values for AAUCAGCAAUAUUACGUAAA are -0.168 ± 0.067 and 0.573 ± 0.099.
GGACAGCAAUAUUACGCCCC: under “30 °C”, the “self-splicing fitness (ln)” value is -0.414 ± 0.41.
On the same count and under the same terms, as for GAGUAGCAAUAUUACGACCC, the figure is 0.0573 ± 0.39.
In the case of CCGAAGCAAUAUUACGUGUA, the “self-splicing fitness (ln)” value is -4.03 ± 0.22 (30 °C) and -2.81 ± 0.19 (37 °C).
For GAGGAGCAAUAUUACGACAU, in that order: -2.069 ± 0.02 and -1.21 ± 0.036.
For CCGGAGCAAUAUUACGGUUA, in that order: -2.44 ± 0.35 and -2.64 ± 0.48.
On to CGCCAGCAAUAUUACGGAGC, for which the “self-splicing fitness (ln)” value reads like this: (30 °C) -3.06 ± 0.24; (37 °C) -2.82 ± 0.48.
For CCUUAGCAAUAUUACGCACU, in that order: -2.46 ± 0.41 and -1.29 ± 0.22.
For CUGCAGCAAUAUUACGGGAG, in that order: -2.74 ± 0.11 and -1.79 ± 0.12.
On to CACUAGCAAUAUUACGACCA, for which the “self-splicing fitness (ln)” value was -1.18 ± 0.14 (30 °C) and -1.69 ± 0.21 (37 °C).
Turning to GCUUAGCAAUAUUACGUUUU, the “self-splicing fitness (ln)” value was -1.68 ± 0.068 (30 °C) and -0.474 ± 0.075 (37 °C).
The corresponding values for ACGGAGCAAUAUUACGUGAA are -2.95 ± 0.15 and -2.35 ± 0.19.
For CAUUAGCAAUAUUACGGUUU, in that order: -3.82 ± 0.2 and -2.68 ± 0.2.
As for ACGUAGCAAUAUUACGGUGA, the “self-splicing fitness (ln)” value is, setting by setting: (30 °C) -2.3 ± 0.2; (37 °C) -0.727 ± 0.15.
The corresponding values for CAUUAGCAAUAUUACGGCGC are -2.01 ± 0.3 and -0.0545 ± 0.24.
The corresponding values for UCUUAGCAAUAUUACGUCCG are -1.41 ± 0.19 and -1.59 ± 0.23.
For AAAAAGCAAUAUUACGCUAU, in that order: -2.04 ± 0.11 and -1.31 ± 0.11.
Regarding CCUGAGCAAUAUUACGAGGA, the “self-splicing fitness (ln)” value was -3.04 ± 0.45 (30 °C) and -1.57 ± 0.18 (37 °C).
The corresponding values for UGAUAGCAAUAUUACGAGUG are -1.14 ± 0.084 and -0.545 ± 0.12.
For the sequence AGGUAGCAAUAUUACGGUCG, the “self-splicing fitness (ln)” value was -0.351 ± 0.014 (30 °C) and -0.0478 ± 0.034 (37 °C).
The corresponding values for AACGAGCAAUAUUACGUCGU are -2.5 ± 0.23 and -2.9 ± 0.31.
For GACGAGCAAUAUUACGAUAU, in that order: -3.83 ± 0.33 and -2.15 ± 0.32.
In the case of CACAAGCAAUAUUACGGUUA, the “self-splicing fitness (ln)” value was -1.01 ± 0.076 (30 °C) and -0.918 ± 0.078 (37 °C).
The corresponding values for UAAAAGCAAUAUUACGGCGG are -0.373 ± 0.078 and -0.0776 ± 0.11.
For GACUAGCAAUAUUACGUUCC, in that order: -3.69 ± 0.3 and -2.17 ± 0.23.
GCACAGCAAUAUUACGGCGU: the “self-splicing fitness (ln)” value is -0.386 ± 0.061 (30 °C) and 0.414 ± 0.079 (37 °C).
The corresponding values for CGACAGCAAUAUUACGUGAU are -3.44 ± 0.21 and -1.92 ± 0.17.
Regarding UCGAAGCAAUAUUACGUGCU, the “self-splicing fitness (ln)” value (30 °C) is -3.75 ± 0.18 and the “self-splicing fitness (ln)” value (37 °C) was -3.77 ± 0.31.
As for CAGUAGCAAUAUUACGCUGG, the “self-splicing fitness (ln)” value was -2.5 ± 0.17 (30 °C) and -1.34 ± 0.19 (37 °C).
For GGUGAGCAAUAUUACGAGGU, in that order: -2.22 ± 0.29 and -1.68 ± 0.27.
The corresponding values for UCAGAGCAAUAUUACGGUUA are -2.88 ± 0.26 and -2.05 ± 0.22.
The corresponding values for GCGCAGCAAUAUUACGUUGG are -1.81 ± 0.06 and -1.76 ± 0.097.
Take ACCGAGCAAUAUUACGGGCU: the “self-splicing fitness (ln)” value runs as follows: (30 °C) -3.3 ± 0.16; (37 °C) -2.59 ± 0.19.
For UUGGAGCAAUAUUACGCUAG, in that order: -2.56 ± 0.23 and -1.64 ± 0.2.
Consider UGCAAGCAAUAUUACGACCA, for which the “self-splicing fitness (ln)” value was -0.338 ± 0.37 (30 °C) and -0.273 ± 0.3 (37 °C).
For GAGCAGCAAUAUUACGGACC, in that order: -0.847 ± 0.11 and -0.206 ± 0.16.
For CUCCAGCAAUAUUACGUAAA, in that order: -3.45 ± 0.17 and -2.17 ± 0.18.
The corresponding values for GACCAGCAAUAUUACGACAG are -3.85 ± 0.18 and -2.22 ± 0.18.
On to AAGUAGCAAUAUUACGUUGG, for which the “self-splicing fitness (ln)” value is, setting by setting: (30 °C) -2.96 ± 0.18; (37 °C) -2.2 ± 0.23.
For GUUGAGCAAUAUUACGGGAA, in that order: -3.4 ± 0.23 and -2.39 ± 0.23.
Take UCUUAGCAAUAUUACGUUAG: the “self-splicing fitness (ln)” value reads like this: (30 °C) -3.78 ± 0.4; (37 °C) -1.17 ± 0.21.
Turning to GGGCAGCAAUAUUACGUGCG, the “self-splicing fitness (ln)” value runs as follows: (30 °C) -0.439 ± 0.057; (37 °C) -0.235 ± 0.077.
For GAACAGCAAUAUUACGACUA, in that order: -0.346 ± 0.085 and -0.46 ± 0.097.
On to UGCUAGCAAUAUUACGGAUC, for which the “self-splicing fitness (ln)” value (37 °C) was -0.421 ± 0.19.
Regarding GCUGAGCAAUAUUACGCAAG, the “self-splicing fitness (ln)” value was -3.22 ± 0.3 (30 °C) and -2.73 ± 0.44 (37 °C).
On to GCUUAGCAAUAUUACGCCAC, for which the “self-splicing fitness (ln)” value reads like this: (30 °C) -1.67 ± 0.32; (37 °C) -1.17 ± 0.45.
As to AUACAGCAAUAUUACGUCGG, the “self-splicing fitness (ln)” value (30 °C) was -2.35 ± 0.13 and the “self-splicing fitness (ln)” value (37 °C) was -2.13 ± 0.17.
The corresponding values for UUUAAGCAAUAUUACGUCAU are -3.03 ± 0.22 and -1.08 ± 0.15.
Take AGGUAGCAAUAUUACGAUGA: the “self-splicing fitness (ln)” value is -0.948 ± 0.016 (30 °C) and -0.562 ± 0.034 (37 °C).
The corresponding values for AUUCAGCAAUAUUACGGAGC are -2.82 ± 0.23 and -1.71 ± 0.19.
With CAGGAGCAAUAUUACGGCGU, the “self-splicing fitness (ln)” value runs as follows: (30 °C) -3.11 ± 0.2; (37 °C) -2.84 ± 0.28.
Turning to UCACAGCAAUAUUACGCGCA, the “self-splicing fitness (ln)” value (30 °C) is -0.0823 ± 0.068 and the “self-splicing fitness (ln)” value (37 °C) was found to be 0.0608 ± 0.075.
Consider UGCUAGCAAUAUUACGCCCG, for which the “self-splicing fitness (ln)” value is -0.583 ± 0.19 (30 °C) and 0.807 ± 0.3 (37 °C).
With GAAAAGCAAUAUUACGGUUC, the “self-splicing fitness (ln)” value reads like this: (30 °C) -3.18 ± 0.11; (37 °C) -2.88 ± 0.16.
For UUCAAGCAAUAUUACGAACU, in that order: -2.74 ± 0.27 and -1.62 ± 0.25.
The corresponding values for GACAAGCAAUAUUACGGCUU are -0.995 ± 0.068 and -0.505 ± 0.1.
The corresponding values for GAGGAGCAAUAUUACGGAUU are -3.61 ± 0.18 and -1.95 ± 0.17.
Regarding GACCAGCAAUAUUACGUAAC, the “self-splicing fitness (ln)” value runs as follows: (30 °C) -0.981 ± 0.065; (37 °C) -0.475 ± 0.079.
For the sequence GUAAAGCAAUAUUACGACUA, the “self-splicing fitness (ln)” value was -0.649 ± 0.097 (30 °C) and -0.957 ± 0.11 (37 °C).
Turning to GACGAGCAAUAUUACGUUAU, the “self-splicing fitness (ln)” value (30 °C) was -4.17 ± 0.39 and the “self-splicing fitness (ln)” value (37 °C) is -2.36 ± 0.31.
As to AGGAAGCAAUAUUACGAGUC, the “self-splicing fitness (ln)” value runs as follows: (30 °C) -2.85 ± 0.35; (37 °C) -1.61 ± 0.27.
In the case of UCAUAGCAAUAUUACGAUCC, for the setting “37 °C”, the “self-splicing fitness (ln)” value was -1.7 ± 0.41.
On to CCAGAGCAAUAUUACGGACA, for which, where the note is “30 °C”, the “self-splicing fitness (ln)” value is -3.25 ± 0.44.
As for AAUCAGCAAUAUUACGGAAC, the “self-splicing fitness (ln)” value (30 °C) was -1.37 ± 0.064 and the “self-splicing fitness (ln)” value (37 °C) is -0.769 ± 0.093.
For CCGCAGCAAUAUUACGGCUA, in that order: -3.46 ± 0.23 and -2.61 ± 0.22.
